Experimental findings from US20220064256A1 (published 2022) are described below.

Changes are numbered by the printed parent chain.

Experiment [1] has as its target CD22 peptide … (SEQ ID NO: 1) in the context of HLA-A*02:01 (human). The experiment can be described thus: cell-based or functional assay.
Experiment [2] deals with T1, CD22 peptide on HLA-A*02:01 (human).
T1 peptide: FLSNDTVQL
The experiment can be described thus: killing.

In experiment [3] the target is T2, CD22 peptide on HLA-A*02:04 (human).
T2 peptide: FLSNDTVQL
The experiment can be described thus: cytokine release.

Experiment [4] concerns the target T3, CD22 peptide on HLA-A*02:05 (human).
T3 peptide: FLSNDTVQL
The experiment is described as follows: cytokine release.

For experiment [5], the target named is T4, CD22 peptide on HLA-A*02:07 (human).
T4 peptide: FLSNDTVQL
The experiment is described as follows: cytokine release.

Experiment [6] concerns the target T5, CD22 peptide on HLA-A*02:10 (human).
T5 peptide: FLSNDTVQL
The experiment can be described thus: cytokine release.

The target of experiment [7] is T6, CD22 peptide on HLA-A*02:02 (human).
T6 peptide: FLSNDTVQL
The experiment can be described thus: cytokine release.

Experiment [8] has as its target T7, CD22 peptide on HLA-A*02:08 (human).
T7 peptide: FLSNDTVQL
The experiment can be described thus: cytokine release.

For experiment [9], the target named is T1, CD22 peptide on HLA-A*02:01. The experiment can be described thus: cytokine release.

B1: CD22 TCR (TCR, V domains shown)
Valpha: EDKVVQSPLSLVVHEGDTVTLNCSYEVTNFRSLLWYKQEKKAPTFLFMLTSSGIEKKSGRLSSILDKKELFSILNITATQTGDSAVYLCAVDNQGGKLIFGQGTELSVKP
Vbeta: GAVVSQHPSWVICKSGTSVKIECRSLDFQATTMFWYRQFPKQSLMLMATSNEGSKATYEQGVEKDKFLINHASLTLSTLTVTSAHPEDSSFYICSARPSGVYNEQFFGPGTRLTVL
The molecule B1 displayed a Kd value by peptide titration on T2 cells (50% of maximal IFNγ release, ELISA) in experiment [1] of 1.1e-08. Moreover, the binding result is recorded as “recognises” in experiment [2]; “recognises” in experiment [3]; “recognises” in experiment [4]; “recognises” in experiment [5]; “recognises” in experiment [6]; “no recognition” in experiment [7]. The binding result in experiment [8] was “no recognition”.

B2: CD22 TCR 3225 (TCR, V domains shown)
Valpha: B1 Valpha
Vbeta: B1 Vbeta with P98E, S99A
As for B2, the Kd value by peptide titration on T2 cells (50% of maximal IFNγ release, ELISA) in experiment [1] was found to be 2.2e-08. Also, the binding result in [9] is “recognises”.
